One test concerns the target T1, recombinant annexin A5 (UniProt P08758 1-320, Alexa Fluor 647 conjugated (the labelled copy held at a constant 20 µg/ml; position not stated); the titrated copy of the dimerisation assay is unlabelled).
T1 construct: annexin A5 (annexin V), recombinant; The products were matched from the reagents list: the Alexa Fluor 647 conjugate is likely Biolegend 640912 and the unlabelled protein likely Novus NBP1-30265; Labelled and unlabelled copies are written as one molecule for the self-association; also called annexin V; annexin A5 conjugated to Alexa Fluor 647; source: recombinant, bought (reagents list: annexin-V …)
T1 sequence (looked up): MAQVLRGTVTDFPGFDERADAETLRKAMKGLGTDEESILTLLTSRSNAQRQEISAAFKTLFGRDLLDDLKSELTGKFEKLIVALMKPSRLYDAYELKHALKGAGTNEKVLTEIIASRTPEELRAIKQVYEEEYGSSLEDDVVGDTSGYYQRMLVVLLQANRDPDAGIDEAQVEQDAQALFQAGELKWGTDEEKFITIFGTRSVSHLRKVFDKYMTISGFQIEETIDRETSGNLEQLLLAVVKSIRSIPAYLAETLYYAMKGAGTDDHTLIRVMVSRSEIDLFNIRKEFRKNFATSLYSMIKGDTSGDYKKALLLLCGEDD
Put plainly: MST; Nanotemper Monolith NT.115; constant annexin A5-Alexa Fluor 647 (20 µg/ml) mixed with cinnamycin from 7×10^−8 mM to 1 mM, 1 h at room temperature. The conditions noted are these: both partners purified.

The target in test [1] is T2, recombinant annexin A5, P08758.
T2 chain: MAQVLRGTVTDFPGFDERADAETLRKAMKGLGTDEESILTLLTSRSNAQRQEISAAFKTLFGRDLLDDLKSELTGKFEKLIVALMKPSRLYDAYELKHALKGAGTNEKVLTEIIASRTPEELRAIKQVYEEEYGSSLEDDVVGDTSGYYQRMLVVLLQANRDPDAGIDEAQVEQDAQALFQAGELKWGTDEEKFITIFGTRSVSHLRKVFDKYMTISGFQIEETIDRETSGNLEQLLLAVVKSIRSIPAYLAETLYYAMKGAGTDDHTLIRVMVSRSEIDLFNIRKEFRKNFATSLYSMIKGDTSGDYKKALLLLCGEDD
Kind of test: MST; Nanotemper Monolith NT.115; constant annexin A5-Alexa Fluor 647 (20 µg/ml) mixed with unlabelled recombinant annexin A5 from 7×10^−6 µg/ml to 100 µg/ml, 1 h at room temperature, with 5 µM Ca2+ (CaCl2); dimerisation (dimer to monomers), used as positive control. Conditions: remark: other sources report otherwise.

B1: cinnamycin (peptide, UniProt P29827 60-78, looked up)
peptide: CRQSCSFGPFTFVCDGNTK
notes: cinnamycin, a 19-amino-acid lantibiotic (the mature peptide cut from its precursor); source: bought: Santa Cruz Biotechnology (sc-391464)
Turning to B1, the Kd with recombinant annexin A5 was determined as 614 µM.

B2: recombinant annexin A5, P08758 1-320 (natural protein)
chain: MAQVLRGTVTDFPGFDERADAETLRKAMKGLGTDEESILTLLTSRSNAQRQEISAAFKTLFGRDLLDDLKSELTGKFEKLIVALMKPSRLYDAYELKHALKGAGTNEKVLTEIIASRTPEELRAIKQVYEEEYGSSLEDDVVGDTSGYYQRMLVVLLQANRDPDAGIDEAQVEQDAQALFQAGELKWGTDEEKFITIFGTRSVSHLRKVFDKYMTISGFQIEETIDRETSGNLEQLLLAVVKSIRSIPAYLAETLYYAMKGAGTDDHTLIRVMVSRSEIDLFNIRKEFRKNFATSLYSMIKGDTSGDYKKALLLLCGEDD
modifications: here or on the partner: Alexa Fluor 647 conjugated (the labelled copy held at a constant 20 µg/ml; position not stated); the titrated copy of the dimerisation assay is unlabelled; Alexa Fluor 647 conjugated (the labelled copy held at a constant 20 µg/ml; position not stated); the titrated copy of the dimerisation assay is unlabelled
On to B2, for which the Kd in test [1] was 1 µM.

Source of the values: article PMC6080606, “Transbilayer phospholipid movement facilitates the translocation of annexin across membranes” (Journal of Cell Science, 2018).
